Experimental data as given in publication PMC10397247.
One block for each binder: values may come before it.

Experiments:
[1] = target: T1, P4SHb; assay: two-hybrid library CCNG1;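 also: natural log of median RNA to DNA barcode read ratio; higher means stronger binding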
T1 chain: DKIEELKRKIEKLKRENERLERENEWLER

[2] = target: T2, P8SHb; assay: two-hybrid library CCNG1;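 also: natural log of median RNA to DNA barcode read ratio; higher means stronger binding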
T2 chain: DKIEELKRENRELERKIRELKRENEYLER

[3] = target: T3, P12SHb; assay: two-hybrid library CCNG1;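 also: natural log of median RNA to DNA barcode read ratio; higher means stronger binding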
T3 chain: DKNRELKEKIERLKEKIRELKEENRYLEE

[4] = target: T4, P11SHb; assay: two-hybrid library CCNG1;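 also: natural log of median RNA to DNA barcode read ratio; higher means stronger binding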
T4 chain: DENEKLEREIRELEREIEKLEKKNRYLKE

[5] = target: T5, P3SHb; assay: two-hybrid library CCNG1;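 also: natural log of median RNA to DNA barcode read ratio; higher means stronger binding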
T5 chain: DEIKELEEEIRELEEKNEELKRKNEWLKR

[6] = target: T6, P1SHb; assay: two-hybrid library CCNG1;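 also: natural log of median RNA to DNA barcode read ratio; higher means stronger binding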
T6 chain: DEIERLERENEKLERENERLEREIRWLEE

[7] = target: T7, P2SHb; assay: two-hybrid library CCNG1
T7 chain: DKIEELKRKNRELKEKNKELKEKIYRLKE

[8] = target: T8, P7SHb; assay: two-hybrid library CCNG1
T8 chain: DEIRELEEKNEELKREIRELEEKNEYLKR

[9] = target: T9, P9SHb; assay: two-hybrid library CCNG1
T9 chain: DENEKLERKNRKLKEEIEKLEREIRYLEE

[10] = target: T10, P6SHb; assay: two-hybrid library CCNG1
T10 chain: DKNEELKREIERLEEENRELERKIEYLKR

[11] = target: T11, 4H2592-AA; assay: two-hybrid library CCmax; details: mean of both orientations
T11 chain: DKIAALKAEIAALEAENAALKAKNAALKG

[12] = target: T12, 4H3340-AA; assay: two-hybrid library CCmax; details: mean of both orientations
T12 chain: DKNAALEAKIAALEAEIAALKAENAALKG

[13] = target: T13, 4H3381-AA; assay: two-hybrid library CCmax; details: mean of both orientations
T13 chain: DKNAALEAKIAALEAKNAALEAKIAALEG

[14] = target: T14, 4H376-AA; assay: two-hybrid library CCmax; details: mean of both orientations
T14 chain: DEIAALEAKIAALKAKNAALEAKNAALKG

[15] = target: T15, 4H2774-AA; assay: two-hybrid library CCmax; details: mean of both orientations
T15 chain: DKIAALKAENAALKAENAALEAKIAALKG

[16] = target: T16, 4H963-AA; assay: two-hybrid library CCmax; details: mean of both orientations
T16 chain: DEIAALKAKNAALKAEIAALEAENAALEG

[17] = target: T17, 4H688-AA; assay: two-hybrid library CCmax
T17 chain: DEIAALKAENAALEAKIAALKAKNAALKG

[18] = target: T18, 4H347-AA; assay: two-hybrid library CCmax; details: mean of both orientations
T18 chain: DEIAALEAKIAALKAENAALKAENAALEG

[19] = target: T19, 4H3001-AA; assay: two-hybrid library CCmax; details: mean of both orientations
T19 chain: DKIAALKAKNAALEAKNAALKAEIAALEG

[20] = target: T20, 4H406-AA; assay: two-hybrid library CCmax; details: mean of both orientations
T20 chain: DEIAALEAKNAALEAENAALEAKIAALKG

[21] = target: T21, 4H3493-AA; assay: two-hybrid library CCmax; details: mean of both orientations
T21 chain: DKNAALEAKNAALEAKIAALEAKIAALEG

[22] = target: T22, 4H1738-AA; assay: two-hybrid library CCmax; details: mean of both orientations
T22 chain: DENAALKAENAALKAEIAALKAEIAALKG

[23] = target: T23, 4H1639-AA; assay: two-hybrid library CCmax
T23 chain: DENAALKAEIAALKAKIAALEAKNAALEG

[24] = target: T24, 4H2504-AA; assay: two-hybrid library CCmax; details: mean of both orientations
T24 chain: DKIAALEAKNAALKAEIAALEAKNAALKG

[25] = target: T25, 4H249-AA; assay: two-hybrid library CCmax; details: mean of both orientations
T25 chain: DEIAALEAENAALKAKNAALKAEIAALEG

[26] = target: T26, 4H2219-AA; assay: two-hybrid library CCmax; details: mean of both orientations
T26 chain: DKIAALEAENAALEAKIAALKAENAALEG

[27] = target: T27, 4H2611-AA; assay: two-hybrid library CCmax; details: mean of both orientations
T27 chain: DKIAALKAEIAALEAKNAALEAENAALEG

[28] = target: T28, O5-bP; assay: two-hybrid library CCNG1
T28 chain: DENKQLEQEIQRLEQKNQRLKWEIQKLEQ

[29] = target: T29, O3-bP; assay: two-hybrid library CCNG1
T29 chain: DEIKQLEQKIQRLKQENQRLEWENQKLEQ

[30] = target: T30, O7-bP; assay: two-hybrid library CCNG1
T30 chain: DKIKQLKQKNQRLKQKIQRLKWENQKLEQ

[31] = target: T31, O16-bP; assay: two-hybrid library CCNG1
T31 chain: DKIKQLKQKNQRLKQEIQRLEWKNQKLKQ

[32] = target: T32, O2-bP; assay: two-hybrid library CCNG1
T32 chain: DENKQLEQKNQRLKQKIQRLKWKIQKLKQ

[33] = target: T33, O12-bP; assay: two-hybrid library CCNG1
T33 chain: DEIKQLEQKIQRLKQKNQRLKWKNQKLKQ

[34] = target: T34, O6-bP; assay: two-hybrid library CCNG1
T34 chain: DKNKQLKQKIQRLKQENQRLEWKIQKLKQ

[35] = target: T35, O14-bP; assay: two-hybrid library CCNG1
T35 chain: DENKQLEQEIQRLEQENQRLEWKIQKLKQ

[36] = target: T36, O4-bP; assay: two-hybrid library CCNG1
T36 chain: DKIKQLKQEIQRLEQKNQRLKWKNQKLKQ

[37] = target: T37, O15-bP; assay: two-hybrid library CCNG1
T37 chain: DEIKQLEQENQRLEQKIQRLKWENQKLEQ

[38] = target: T38, O11-bP; assay: two-hybrid library CCNG1
T38 chain: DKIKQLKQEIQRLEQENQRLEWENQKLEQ

[39] = target: T39, O10-bP; assay: two-hybrid library CCNG1
T39 chain: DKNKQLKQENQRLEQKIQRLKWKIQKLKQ

[40] = target: T40, O9-bP; assay: two-hybrid library CCNG1
T40 chain: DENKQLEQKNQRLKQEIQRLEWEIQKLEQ

[41] = target: T41, O8-bP; assay: two-hybrid library CCNG1
T41 chain: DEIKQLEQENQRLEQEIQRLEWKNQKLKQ

[42] = target: T42, O13-bP; assay: two-hybrid library CCNG1
T42 chain: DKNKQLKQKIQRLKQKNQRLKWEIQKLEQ

[43] = target: T43, O1-bP; assay: two-hybrid library CCNG1
T43 chain: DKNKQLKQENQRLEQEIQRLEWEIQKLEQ

interaction score [1]: 0.998
interaction score [2]: -0.421
interaction score [3]: 1.61
interaction score [4]: 0.241
interaction score [5]: -0.138
interaction score [6]: -0.267
interaction score [7]: 0.79
interaction score [8]: 0.246
interaction score [9]: 0.702
interaction score [10]: 1.17
Binder: DENEKLEREIRELEREIEKLEKKNRYLKE [P11SHb]

interaction score [11]: -1.85
interaction score [12]: -1.63
interaction score [13]: -1.7
interaction score [14]: -1.37
interaction score [15]: -1.35
interaction score [16]: -2.16
interaction score [17]: -1.18
interaction score [18]: -1.41
interaction score [19]: -2.12
interaction score [20]: -1.63
interaction score [21]: -1.73
interaction score [22]: -1.64
interaction score [23]: 1.24
interaction score [24]: -1.77
interaction score [25]: -1.52
interaction score [26]: -1.88
interaction score [27]: -1.52
Binder: DENAALKAEIAALKAKIAALEAKNAALEG [4H1639-AA]

interaction score [28]: -1.22
interaction score [29]: -1.35
interaction score [30]: -1.06
interaction score [31]: -0.714
interaction score [32]: 1.06
interaction score [33]: -1.11
interaction score [34]: -0.442
interaction score [35]: -1.51
interaction score [36]: -1.05
interaction score [37]: -1.88
interaction score [38]: -0.513
interaction score [39]: -0.164
interaction score [40]: 1.31
interaction score [41]: -1.95
interaction score [42]: -0.754
interaction score [43]: -0.355
Binder: DKNKQLKQENQRLEQEIQRLEWEIQKLEQ [O1-bP]
